Measurements reported in paper PMC12607617, “Self-resistance mechanism to acyldepsipeptide antibiotics in the Streptomyces producer” (mBio, 2025).

Biological target: the molecule itself
Test: SEC; purified S. hawaiiensis ClpP1, alone or with ClpP_(ADEP), pre-incubated with ADEP1

B1: Streptomyces hawaiiensis ClpP1, untagged (enzyme, Streptomyces hawaiiensis NRRL 15010, UniProt A0A5B9BGY8 1-219, looked up)
chain: MRRPGAVVRRAGGYVTNLMPSAAGEPSIGGGLGDQVYNRLLNERIIFLGQPVDDDIANKITAQLLLLASDPEKDIYLYINSPGGSITAGMAIYDTMQYIKNDVVTIAMGLAASMGQFLLSAGTPGKRFALPNAEILIHQPSAGLAGSASDIKIHAERLLHTKKRMAELTSQHTGQTIEQITRDSDRDRWFDAFEAKEYGLIDDVMTTAAGMPGGGGTGA
notes: ClpP1, proteolytic subunit of the Clp protease, Streptomyces hawaiiensis NRRL 15010; Printed as untagged in the pull-down; also called shClpP1
For B1, the “stoichiometry N” value was 14.
